Test results: patent US20250258178A1 (SHIONOGI, published 2025)

What was measured:
[1] = biological target: T1, human histidine-rich glycoprotein (HRG), purified from human plasma (human, UniProt P04196 19-525); assay: sandwich ELISA, HRG captured by solid phase 3-4E
T1 construct: also called human purified HRG; human purified HRG protein
T1 sequence: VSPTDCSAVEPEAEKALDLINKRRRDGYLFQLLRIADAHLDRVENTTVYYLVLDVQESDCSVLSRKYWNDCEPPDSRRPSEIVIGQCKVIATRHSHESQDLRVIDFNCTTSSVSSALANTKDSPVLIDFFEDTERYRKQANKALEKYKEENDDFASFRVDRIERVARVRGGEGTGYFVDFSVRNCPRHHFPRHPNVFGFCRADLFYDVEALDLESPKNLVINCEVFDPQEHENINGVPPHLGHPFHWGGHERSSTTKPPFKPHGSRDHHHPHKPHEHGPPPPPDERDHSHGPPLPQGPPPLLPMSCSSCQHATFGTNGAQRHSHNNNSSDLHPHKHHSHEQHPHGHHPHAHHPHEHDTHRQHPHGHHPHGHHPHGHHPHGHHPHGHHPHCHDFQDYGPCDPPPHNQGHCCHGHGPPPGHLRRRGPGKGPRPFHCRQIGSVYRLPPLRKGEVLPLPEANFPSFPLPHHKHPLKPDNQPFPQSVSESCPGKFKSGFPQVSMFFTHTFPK
Protocol: (§1) The capture antibody solution was dispensed at 25 μL per well into 384-well Maxisorp plates (NUNC), and the plates were incubated at room temperature for 3 hours. The plates were washed twice with 120 μL of washing solution per well (0.05% Tween 20-containing PBS). A blocking solution (1% BSA-containing PBS) was dispensed at 30 μL per well, and the plates were incubated at room temperature for 3 hours. The blocking solution was removed followed by dispensing the standard substance for evaluation at 20 μL per well (n=2), and the plates were incubated at room temperature for 3 hours. After washing the plates four times with the washing solution as described above, the solution of each detector antibody was dispensed at 10 μL per well, followed by dispensing a horseradish peroxidase-streptavidin solution (0.05 μg/mL) at 10 μL per well, and the plates were incubated at room temperature for 1 hour. After washing the plates four times with the washing solution as described above, a chromogenic substrate solution (TMB (3,3′,5,5′-tetramethylbenzidine)) was dispensed at 20 μL per well followed by incubating the plates at room temperature for 10 minutes, then a reaction stop solution 0.5 M H₂SO₄ was added at 20 μL/well, and the absorbance at 450 nm was measured.
(§2) The results regarding the evaluation of combinations chosen from 21 types of anti-HRG monoclonal antibodies are shown in Table 1. In Table 1, the absorbance at a wavelength of 450 nm of each combination was determined as follows: less than 1.0 OD: −, 1.0 OD or more and less than 2.0 OD: +, 2.0 OD or more and less than 3.0 OD: ++, and 3.0 OD or more: +++. The combinations of antibodies which could construct a sandwich ELISA system having enough level of absorbance change were 86 sets evaluated as ++ or +++ in Table 1.

[2] = biological target: T1, human histidine-rich glycoprotein …; assay: sandwich ELISA, HRG captured by solid phase 13-2G
Protocol: as §1, §2

[3] = biological target: T1, human histidine-rich glycoprotein …; assay: sandwich ELISA, HRG captured by solid phase 14-6F
Protocol: as §1, §2

[4] = biological target: T1, human histidine-rich glycoprotein …; assay: sandwich ELISA, HRG captured by solid phase 19-1C
Protocol: as §1, §2

[5] = biological target: T1, human histidine-rich glycoprotein …; assay: sandwich ELISA, HRG captured by solid phase 31-1H
Protocol: as §1, §2

[6] = biological target: T1, human histidine-rich glycoprotein …; assay: sandwich ELISA, HRG captured by solid phase 32-4C
Protocol: as §1, §2

[7] = biological target: T1, human histidine-rich glycoprotein …; assay: sandwich ELISA, HRG captured by solid phase 58-5C
Protocol: as §1, §2

[8] = biological target: T1, human histidine-rich glycoprotein …; assay: sandwich ELISA, HRG captured by solid phase 65-3A
Protocol: as §1, §2

[9] = biological target: T1, human histidine-rich glycoprotein …; assay: sandwich ELISA, HRG captured by solid phase 69-1A
Protocol: as §1, §2

[10] = biological target: T1, human histidine-rich glycoprotein …; assay: sandwich ELISA, HRG captured by solid phase 81-2C
Protocol: as §1, §2

[11] = biological target: T1, human histidine-rich glycoprotein …; assay: sandwich ELISA, HRG captured by solid phase 88-2E
Protocol: as §1, §2

[12] = biological target: T1, human histidine-rich glycoprotein …; assay: sandwich ELISA, HRG captured by solid phase 93-4C
Protocol: as §1, §2

[13] = biological target: T1, human histidine-rich glycoprotein …; assay: sandwich ELISA, HRG captured by solid phase 40-10G
Protocol: as §1, §2

[14] = biological target: T1, human histidine-rich glycoprotein …; assay: sandwich ELISA, HRG captured by solid phase 50-6C-2A
Protocol: as §1, §2

[15] = biological target: T1, human histidine-rich glycoprotein …; assay: sandwich ELISA, HRG captured by solid phase 67-8A-5F
Protocol: as §1, §2

[16] = biological target: T1, human histidine-rich glycoprotein …; assay: sandwich ELISA, HRG captured by solid phase 35-3G-10C
Protocol: as §1, §2

[17] = biological target: T1, human histidine-rich glycoprotein …; assay: sandwich ELISA, HRG captured by solid phase 94-7A-3C-3D
Protocol: as §1, §2

[18] = biological target: T1, human histidine-rich glycoprotein …; assay: sandwich ELISA, HRG captured by solid phase 6-12A-10B-9G
Protocol: as §1, §2

Row | Binder | absorbance at 450 nm [4] | absorbance at 450 nm [5] | absorbance at 450 nm [6] | absorbance at 450 nm [9] | absorbance at 450 nm [10] | absorbance at 450 nm [11] | absorbance at 450 nm (OD450) [12] | absorbance at 450 nm [16] | absorbance at 450 nm [17] | absorbance at 450 nm (OD450) [18] | further results
1 | anti-HRG monoclonal antibody 69-1A (antibody, V domains shown, Mouse hybridoma monoclonal; also called clone No. 69-1A) VH: EVKLEESGGGLVQPGGSMKLSCAASGFTFSDAWMDWVRQSPEKGLEWVAEIRSKANNHGTYYAESVKGRFTISRDDSKSSVYLRMNSLSAEDTGIYYCTRPFAYWGQGTLVTVSA VL: DVVVTQTPLSLPVSLGDQASISCRSSQSLVHIDGNTYFHWYVQKPGQSPKLLIYKVSNRFSGVPDRFSGSGSGTDFTLKISRVEAEDLGVYFCSQSTHVPLTFGAGTKLELK | < 1 OD | < 1 OD | < 1 OD | < 1 OD | < 1 OD | < 1 OD | 1 to 2 od | < 1 OD | < 1 OD | 2 to 3 od | absorbance at 450 nm (OD450) [1]: ≥ 3 od; absorbance at 450 nm [2]: < 1 OD; absorbance at 450 nm (OD450) [3]: 1 to 2 od; absorbance at 450 nm (OD450) [7]: 1 to 2 od; absorbance at 450 nm [8]: < 1 OD; absorbance at 450 nm (OD450) [13]: 1 to 2 od; absorbance at 450 nm [14]: < 1 OD; absorbance at 450 nm [15]: < 1 OD
2 | anti-HRG monoclonal antibody 75-2D (antibody, V domains shown, Mouse hybridoma monoclonal; also called clone No. 75-2D) VH: QVQLQQSGAELMKPGASVKISCKATGYTFSSYWIEWVKQRPGHGLEWIGEILPGSGRTNYNEKFKGKATFTADTSSNTAYMQLSSLTSEDSAVYYCARYSYFYYFDYWGQGTTLTVSS VL: DNVLTQSPAIMSASLGERVTMTCTASSSVSSSYLHWYQQKPGSSPKLWIYSTSNLASGVPARFSGSGSGTSYSLTISSMEAEDAATYYCHQYHRSPWTFGGGTKLEIK | < 1 OD | < 1 OD | < 1 OD | < 1 OD | < 1 OD | < 1 OD | 1 to 2 od | < 1 OD | < 1 OD | ≥ 3 od | absorbance at 450 nm [1]: < 1 OD; absorbance at 450 nm (OD450) [2]: 2 to 3 od; absorbance at 450 nm (OD450) [8]: ≥ 3 od; absorbance at 450 nm (OD450) [14]: ≥ 3 od; absorbance at 450 nm (OD450) [15]: ≥ 3 od
